Measured values: WO2021251460A1 (dated 2021)

T1: human Glypican-1 (human, UniProt P35052 24-530)
T1 construct: Endogenous GPC1 on human cancer cell lines: BxPC-3 in the FACS and internalization assays; TE8, TE14, BxPC3, KP-2 and PK-8 in the ADC assay; also called GPC-1; GPC1
T1 sequence: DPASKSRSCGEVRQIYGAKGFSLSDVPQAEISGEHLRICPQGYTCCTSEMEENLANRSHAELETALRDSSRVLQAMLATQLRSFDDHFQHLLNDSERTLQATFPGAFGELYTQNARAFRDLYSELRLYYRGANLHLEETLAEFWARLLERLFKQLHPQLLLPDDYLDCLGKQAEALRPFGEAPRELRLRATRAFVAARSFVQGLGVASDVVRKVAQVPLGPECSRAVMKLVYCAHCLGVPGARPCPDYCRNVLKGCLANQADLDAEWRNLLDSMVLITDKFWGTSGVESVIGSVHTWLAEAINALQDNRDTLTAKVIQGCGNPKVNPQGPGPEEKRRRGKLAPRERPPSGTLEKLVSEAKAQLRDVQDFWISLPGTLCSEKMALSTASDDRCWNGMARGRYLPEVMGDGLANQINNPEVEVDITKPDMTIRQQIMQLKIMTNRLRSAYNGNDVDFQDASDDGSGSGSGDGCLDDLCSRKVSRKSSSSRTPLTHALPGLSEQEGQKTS


Legend:
human Glypican-1 [1] = biological target: T1, human Glypican-1; assay: FACS titration on BxPC-3 cells, FITC anti-mouse IgG secondary
human Glypican-1 [2] = biological target: T1, human Glypican-1; assay: FACS on BxPC-3 cells pre-treated with GPC1-ADC (01a033) MMAE, streptavidin-PE detection

Row | Binder | binding result (human Glypican-1 [1]) | binding result (human Glypican-1 [2])
1 | anti-GPC1 monoclonal antibody (clone K090-01a033) (antibody, mouse IgG2a, kappa, V domains shown, Mouse monoclonal antibody; mouse IgG2a kappa (MOPC173) was used as its isotype control; also called mouse anti-GPC-1 clone 01a033; mouse anti-human Glypican-1 mAb (01a033)) VH: QVQLKQSGPELVKPGASVKISCKASGYSFTGYYMHWVKQSPEKSLEWIGEINPSTGDTTYNQKFKAKATLTVDKSSSTAYMQLKSLTSEDSAVYYCAREKRDDGVFAYWGQGTLVTVSS VL: DIVMSQSPKSMSMSVGERVALSCKASENVGTYVSWYQQKPEQSPKLLIYGASNRYTGVPDRFTGSGSATDFTLTISSVQAEDLADYYCGQSYSYPLTFGAGTKLELKR | binds | 
2 | GPC1-ADC (01a033) MMAE (antibody, mouse IgG2a, kappa, V domains shown, MC-vc-PAB-MMAE on reduced interchain cysteine residues; DAR 3.7 per antibody; MC-vc-PAB-MMAE (maleimidocaproyl-valine-citrulline-p-aminobenzyloxycarbonyl-monomethyl auristatin E) on reduced interchain cysteine residues; DAR 3.7 per antibody, also called GPC1-ADC (MMAE); αGPC1-CL-MMAE) VH: QVQLKQSGPELVKPGASVKISCKASGYSFTGYYMHWVKQSPEKSLEWIGEINPSTGDTTYNQKFKAKATLTVDKSSSTAYMQLKSLTSEDSAVYYCAREKRDDGVFAYWGQGTLVTVSS VL: DIVMSQSPKSMSMSVGERVALSCKASENVGTYVSWYQQKPEQSPKLLIYGASNRYTGVPDRFTGSGSATDFTLTISSVQAEDLADYYCGQSYSYPLTFGAGTKLELKR | binds | 
3 | biotin-labeled anti-GPC1 antibody 02b006 (antibody, mouse IgG2a, kappa, V domains shown, biotin-labeled (site not given), Detection antibody for GPC1 left on the cell surface in the internalization assay, read out with streptavidin-PE; also called anti-GPC1 mAb (biotin-labeled 02b006); K090-02b006) VH: EVQLVESGGGLVKPGGSRKLSCAASGFTFSDYGMHWVRQAPEKGLEWVAYISSGSSTIYYADTVKGRFTISRDNAKNTLFLQMTSLRSEDTAIYYCVRHSYYNYDIGGYYAMDYWGQGTSVTVSS VL: DIVLTQSPSSLSASLGERVSLTCRASQEISGYLSWLQQKPDGTIKRLIYAASTLDSGVPKRFSGSRSGSDYSLTISSLESEDFADYYCLQYASYPLTFGAGTKLEIKR |  | binds
